By Kd is commonly meant the free concentration of one partner at which half of the binding sites on the other are occupied at equilibrium, for simple one-to-one binding.

Assay [1] addresses HLA-B*40:01. Description: IEDB peptide-MHC binding, purified MHC/competitive/fluorescence; filed as Kd, often an IC50 or EC50 that approximates it; ≥ and ≤ were set here for values at or beyond the usual limits of such assays.
Another assay concerns the target HLA-B*44:02. The description is as above. The following applies: source organism: Escherichia coli O139:H28 str. E24377A.
The next assay addresses HLA-B*57:01. The assay is described as above.
The target in the next assay is HLA-B*15:17. The assay is described as above.
In a further assay the target is HLA-B*58:01. Description: IEDB peptide-MHC binding, purified MHC/direct/fluorescence; filed as Kd, often an IC50 or EC50 that approximates it; ≥ and ≤ were set here for values at or beyond the usual limits of such assays.
Assay [2] deals with HLA-B*15:01. The description is as above.
In the next assay the target is HLA-A*29:02. The experiment in a line: IEDB peptide-MHC binding, purified MHC/competitive/fluorescence; filed as Kd, often an IC50 or EC50 that approximates it; ≥ and ≤ were set here for values at or beyond the usual limits of such assays. The following applies: source organism: Burkholderia pseudomallei 668.
The target of the next assay is HLA-B*45:06. The description is as above. The following applies: source organism: Burkholderia pseudomallei 668.
For another assay, the target named is HLA-B*83:01. The description is as above. The note with it: source organism: Burkholderia pseudomallei 668.
For assay [3], the target named is HLA-A*24:03. The description is as above.
The target of another assay is HLA-B*27:03. The assay is described as above.
A further assay addresses HLA-B*39:01. The assay is described as above. The following applies: source organism: Burkholderia pseudomallei 668.
Assay [4] concerns the target HLA-A*03:01. Described as above.
Assay [5] deals with HLA-A*69:01. Described as above.
In another assay the target is HLA-B*51:01. The description is as above. The following applies: source organism: Burkholderia pseudomallei 668.
A further assay has as its target HLA-A*02:11. The description is as above.
A further assay concerns the target HLA-A*68:02. The description is as above. The following applies: source organism: Burkholderia pseudomallei 668.
The target of assay [6] is HLA-A*02:01. The description is as above.
Another assay addresses HLA-B*46:01. The assay is described as above.
In a further assay the target is HLA-B*15:42. Described as above. The following applies: source organism: Burkholderia pseudomallei 668.
Assay [7] deals with HLA-A*26:01. Described as above.
Another assay concerns the target HLA-A*23:01. Described as above.
Another assay concerns the target HLA-B*18:01. Described as above.
Assay [8] addresses HLA-B*15:01. The description is as above. The note with it: source organism: Vibrio vulnificus CMCP6.
A further assay addresses HLA-A*02:16. Described as above.
The next assay has as its target HLA-A*02:03. The description is as above.
The next assay addresses HLA-A*02:06. The assay is described as above.
A further assay addresses HLA-A*02:50. The assay is described as above. The note with it: source organism: Pasteurella multocida subsp. multocida str. Pm70.
The target of another assay is HLA-A*02:12. The description is as above.
In the next assay the target is HLA-A*11:01. The experiment in a line: IEDB peptide-MHC binding, purified MHC/direct/fluorescence; filed as Kd, often an IC50 or EC50 that approximates it; ≥ and ≤ were set here for values at or beyond the usual limits of such assays. The following applies: source organism: Pasteurella multocida.
The next assay has as its target HLA-A*31:01. The description is as above. The following applies: source organism: Pasteurella multocida.
Assay [9] concerns the target HLA-A*24:03. The description is as above. The note with it: source organism: Pasteurella multocida.
The target in a further assay is HLA-A*01:01. The description is as above. The following applies: source organism: Pasteurella multocida.
The target of assay [10] is HLA-A*03:01. The assay is described as above. The note with it: source organism: Pasteurella multocida.
A further assay concerns the target HLA-B*27:05. The assay is described as above. The following applies: source organism: Pasteurella multocida.
Assay [11] deals with HLA-A*69:01. The assay is described as above. The note with it: source organism: Pasteurella multocida.
The next assay addresses HLA-B*08:01. The description is as above. The note with it: source organism: Pasteurella multocida.
The target of assay [12] is HLA-A*02:01. The description is as above. The note with it: source organism: Pasteurella multocida.
The target of assay [13] is HLA-B*40:01. The description is as above. The following applies: source organism: Pasteurella multocida.
The target in assay [14] is HLA-A*26:01. The assay is described as above. The following applies: source organism: Pasteurella multocida.
The target in the next assay is HLA-B*07:02. Described as above. The following applies: source organism: Pasteurella multocida.
Another assay concerns the target HLA-A*02:19. Description: IEDB peptide-MHC binding, purified MHC/competitive/fluorescence; filed as Kd, often an IC50 or EC50 that approximates it; ≥ and ≤ were set here for values at or beyond the usual limits of such assays. The note with it: source organism: Human immunodeficiency virus 1.
Where [15] appears, read: source organism: Escherichia coli O139:H28 str. E24377A.
Where [16] appears, read: source organism: Escherichia coli.
Where [17] appears, read: source organism: Burkholderia pseudomallei 668.
Setting [18] is: source organism: Vibrio vulnificus CMCP6.
The mark [19] stands for this setting: source organism: Pasteurella multocida subsp. multocida str. Pm70.
Where [20] appears, read: source organism: Pasteurella multocida.
[21] abbreviates: source organism: Human immunodeficiency virus 1.

With IEDKNLYMF, in the assay with HLA-B*40:01 [1] (source organism: Bacillus mycoides KBAB4), the Kd amounted to 0.0127 µM.
Turning to WEKAWPAVF, the Kd with HLA-B*40:01 [1] (source organism: Escherichia coli O157:H7 str. EDL933) was 0.096 µM. That is a double-digit nanomolar value.
In the case of WSILRQRCW, the Kd with HLA-B*44:02 is no less than 20 µM; in the assay with HLA-B*57:01 (setting [15]) it was 0.108 µM; in the assay with HLA-B*15:17 (setting [15]) it was 0.0052 µM; with HLA-B*58:01 (setting [16]), 0.0521 µM; in the assay with HLA-B*15:01 [2] (setting [16]) it was 0.0934 µM.
In the case of ILFDRLPIA, the Kd in the assay with HLA-A*29:02 was no less than 20 µM; with HLA-B*45:06, no less than 5 µM; with HLA-B*83:01, no less than 5 µM; with HLA-B*57:01 (setting [17]), no less than 20 µM; in the assay with HLA-A*24:03 [3] (setting [17]), no less than 20 µM; with HLA-B*27:03 (setting [17]) it was no less than 20 µM. For the same sequence, the Kd in the assay with HLA-B*39:01 was no less than 20 µM; with HLA-A*03:01 [4] (setting [17]) it was no less than 20 µM; in the assay with HLA-A*69:01 [5] (setting [17]) it was no less than 20 µM; with HLA-B*51:01, no less than 20 µM; with HLA-A*02:11 (setting [17]), no more than 0.0001 µM; with HLA-B*15:17 (setting [17]), no less than 20 µM. Moreover, the Kd with HLA-A*68:02 was no less than 20 µM; with HLA-A*02:01 [6] (setting [17]) it was no more than 0.0001 µM; in the assay with HLA-B*46:01 (setting [17]), no less than 20 µM; in the assay with HLA-B*15:42 it was 0.97 µM; with HLA-A*26:01 [7] (setting [17]), no less than 20 µM; in the assay with HLA-A*23:01 (setting [17]), no less than 20 µM. This sequence registered a Kd with HLA-B*18:01 (setting [17]) of no less than 20 µM.
As for FGAQMGWPV, the Kd in the assay with HLA-B*57:01 (setting [18]) is no less than 20 µM; with HLA-A*24:03 [3] (setting [18]) it was no less than 20 µM; in the assay with HLA-B*27:03 (setting [18]), no less than 20 µM; with HLA-A*03:01 [4] (setting [18]), no less than 20 µM; in the assay with HLA-B*15:01 [8] it was no less than 20 µM; with HLA-A*02:01 [6] (setting [18]), 0.0048 µM. Besides, the Kd is no less than 20 µM with HLA-B*46:01 (setting [18]); no less than 20 µM with HLA-A*26:01 [7] (setting [18]); no less than 20 µM with HLA-A*23:01 (setting [18]); 0.0062 µM with HLA-A*02:16 (setting [18]); no less than 20 µM with HLA-B*18:01 (setting [18]).
On to LLKDLMPFV, for which the Kd with HLA-A*02:03 (setting [19]) is no more than 0.0001 µM; with HLA-A*02:06 (setting [19]) it was no more than 0.0001 µM; with HLA-A*02:50 it was no more than 0.0001 µM; in the assay with HLA-A*02:11 (setting [19]) it was no more than 0.0001 µM; with HLA-A*02:12 (setting [19]) it was no more than 0.0001 µM; with HLA-A*11:01, no less than 20 µM. In addition, the Kd with HLA-A*31:01 was 1.46 µM; with HLA-A*24:03 [9] it was no less than 20 µM; with HLA-B*58:01 (setting [20]), no less than 20 µM; with HLA-A*01:01 it was no less than 20 µM; with HLA-A*03:01 [10] it was no less than 20 µM; with HLA-B*27:05 it was no less than 20 µM. Moreover, the Kd in the assay with HLA-A*69:01 [11] was 0.162 µM; in the assay with HLA-B*08:01 it was no less than 20 µM; with HLA-B*15:01 [2] (setting [20]), 9.23 µM; with HLA-A*02:01 [12] it was 0.051 µM; with HLA-B*40:01 [13], no less than 20 µM; with HLA-A*26:01 [14], 0.0131 µM. In the assay with HLA-B*07:02, this sequence registered a Kd of no less than 20 µM.
On to HLADQLIHQ, for which the Kd with HLA-A*02:19 is no less than 20 µM; in the assay with HLA-A*02:03 (setting [21]), 0.311 µM; with HLA-A*69:01 [5] (setting [21]), no less than 20 µM; in the assay with HLA-A*02:11 (setting [21]) it was 0.101 µM; in the assay with HLA-A*02:01 [6] (setting [21]), 6.59 µM.
Regarding FLGKIWPS, the Kd with HLA-A*02:19 is 0.0004 µM; with HLA-A*02:03 (setting [21]) it was no more than 0.0001 µM; with HLA-A*02:06 (setting [21]) it was no more than 0.0001 µM; with HLA-A*69:01 [5] (setting [21]) it was 2.76 µM; with HLA-A*02:11 (setting [21]), no more than 0.0001 µM; with HLA-A*02:01 [6] (setting [21]), 0.00325 µM. Moreover, the Kd with HLA-A*02:12 (setting [21]) and with HLA-A*02:16 (setting [21]) was no more than 0.0001 µM each time.

For the origin of these results see the Immune Epitope Database (IEDB).
